{
  "source": "paper PMC9277520",
  "assay_in_all_cases": "SEC; BV-bound protein on a Superdex 200 10/300 GL column, absorbance at 280, 380 and 630 nm, calibrated with a standard protein mixture; self-association (monomer or tetramer)",
  "key": {"[1]": {"biological_target": "Sandercyanin F106A variant (Stizostedion vitreum (Canadian walleye))"}, "[2]": {"biological_target": "Sandercyanin F55A variant (Stizostedion vitreum (Canadian walleye))"}, "[3]": {"biological_target": "wild-type Sandercyanin (SFP) (Stizostedion vitreum (Canadian walleye))"}, "[4]": {"biological_target": "Sandercyanin H108A variant (Stizostedion vitreum (Canadian walleye))"}, "[5]": {"biological_target": "Sandercyanin Y142A variant (Stizostedion vitreum (Canadian walleye))"}},
  "data": [
    {"substance": "Sandercyanin F106A variant (natural protein)", "values": [
      {"measurement": "stoichiometry N", "setting": "[1]", "result": 4}
    ]},
    {"substance": "Sandercyanin F55A variant (natural protein)", "values": [
      {"measurement": "stoichiometry N", "setting": "[2]", "result": 4}
    ]},
    {"substance": "wild-type Sandercyanin (SFP) (natural protein)", "values": [
      {"measurement": "stoichiometry N", "setting": "[3]", "result": 4}
    ]},
    {"substance": "Sandercyanin H108A variant (natural protein)", "values": [
      {"measurement": "stoichiometry N", "setting": "[4]", "result": 4}
    ]},
    {"substance": "Sandercyanin Y142A variant (natural protein)", "values": [
      {"measurement": "stoichiometry N", "setting": "[5]", "result": 4}
    ]}
  ]
}
